Measurements published in publication PMC4753803.

Biological target: death receptor 5 (DR5) (human (endogenous in MB231)), O14763
Test: co-IP + pull-down
Settings: remark: other sources report otherwise

B1: caspase-8, Q14790 1-479 (enzyme)
chain: MDFSRNLYDIGEQLDSEDLASLKFLSLDYIPQRKQEPIKDALMLFQRLQEKRMLEESNLSFLKELLFRINRLDLLITYLNTRKEEMERELQTPGRAQISAYRVMLYQISEEVSRSELRSFKFLLQEEISKCKLDDDMNLLDIFIEMEKRVILGEGKLDILKRVCAQINKSLLKIINDYEEFSKERSSSLEGSPDEFSNGEELCGVMTISDSPREQDSESQTLDKVYQMKSKPRGYCLIINNHNFAKAREKVPKLHSIRDRNGTHLDAGALTTTFEELHFEIKPHDDCTVEQIYEILKIYQLMDHSNMDCFICCILSHGDKGIIYGTDGQEAPIYELTSQFTGLKCPSLAGKPKVFFIQACQGDNYQKGIPVETDSEEQPYLEMDLSSPQTRYIPDEADFLLGMATVNNCVSYRNPAEGTWYIQSLCQSLRERCPRGDDILTILTEVNYEVSNKDDKKNMGKQMPQPTFTLRKKLVFPSD
ratio of caspase-8/DR5 in DR5 precipitates, Axl knocked down relative to siNEG: 1.73 fold
